According to publication PMC11157265:

How the values were obtained:
[1] = target: PduA* (Citrobacter freundii PduA with a C-terminal 23 residue extension) (C. freundii); assay: native gel or EMSA; PduA and variants alone on native PAGE run at pH 8.5, 4 °C; low mobility = tessellated, high mobility = not tessellated; step: hexamer with hexamer (tessellation)
PduA* A63R (C. freundii) = assay: native gel or EMSA; PduA, A63R and A^GGSST alone on native gel run at pH 9.5; mobility tells tessellated from not tessellated; step: hexamer with hexamer (tessellation)
[2] = target: PduA* (Citrobacter freundii PduA with a C-terminal 23 residue extension) (C. freundii); assay: native gel or EMSA; titration of PduL into PduA trimer of hexamers on a native gradient gel (higher resolution)
[3] = target: PduA* (Citrobacter freundii PduA with a C-terminal 23 residue extension) (C. freundii); assay: native gel or EMSA; titration of tagless PduL into His-tagged PduA on a 6% acrylamide native gel, with anti-His Western blot to locate PduA

PduA* (Citrobacter freundii PduA with a C-terminal 23 residue extension) (natural protein)
stoichiometry N [1]: 3 hexamers

PduA* A63R (natural protein)
stoichiometry N (PduA* A63R (C. freundii)): 3 hexamers

B1: PduL (Citrobacter freundii), His-tag cleaved (enzyme)
chain: MDKQQLETTVTKVLDEMRERPIPLGISNRHIHLCAEDYDRLFPNHPISEKKELLQPGQYAADQTVTLVGPKGQLKNVRLLGPLRSTSQVEISRTDARTLGIAAPLRMSGSIEGTPGVRLISPFAELDLASGVIVAQRHIHMSPLDALILRVSHGDKVSVAINGDERRLIFDNVAVRVSPDMRLEMHIDTDEANAAGADNPQAFATLVSPR
stoichiometry N (PduL dimers per PduA trimer of hexamers) [2]: 3 | stoichiometry N (PduL dimer per PduA hexamer) [3]: 1
